Measurements taken from article PMC8658920.

Molecular target: heterochromatin protein HP1γ (UniProt Q13185)
Assay: proximity labelling; PUB (proximity utilizing biotinylation): BAP-HP1γ co-expressed with BirA-HP1γ or, in a separate dish, with BirA-Tap54α; 4 h biotinylation time; MRM LC-MS/MS on Agilent nanoHPLC-Chip ion trap, Skyline; ratio of biotinylation level, experiment versus control

heterochromatin protein HP1γ, Q13185 1-183 (natural protein; other documents disagree on this pair), sequence (Q13185 whole entry): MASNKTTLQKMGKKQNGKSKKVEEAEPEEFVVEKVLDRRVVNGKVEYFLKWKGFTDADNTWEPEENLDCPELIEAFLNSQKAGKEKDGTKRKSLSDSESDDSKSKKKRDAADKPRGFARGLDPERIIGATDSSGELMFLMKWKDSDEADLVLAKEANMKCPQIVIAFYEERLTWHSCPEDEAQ

heterochromatin protein HP1γ, Q13185 1-183 (natural protein; other documents disagree on this pair)
ratio of biotinylation level, experiment versus control BAP-HP1γ + BirA-Tap54α (4 h biotinylation time): 32
